Reference: patent US20260092110A1 (Kyowa Kirin, published 2026)

T1: human MOG (hMOG) expressed on HEK293, Expi293F or L929 cells (human, UniProt Q16653 30-247)
T1 construct: also called hMOG/HEK293; hMOG/HEK293F
T1 chain: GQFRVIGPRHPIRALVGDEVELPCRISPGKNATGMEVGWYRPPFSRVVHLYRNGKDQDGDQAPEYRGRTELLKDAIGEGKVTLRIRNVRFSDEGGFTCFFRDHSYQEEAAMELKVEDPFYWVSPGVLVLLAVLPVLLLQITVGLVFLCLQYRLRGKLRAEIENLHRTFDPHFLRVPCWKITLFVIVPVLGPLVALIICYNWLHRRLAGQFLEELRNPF


Columns and labels:
[1] = target: T2, extracellular domain protein of rat MOG to which GST is added at the C-terminus (rMOG-GST) (rat); assay: SPR as in Example 8 (antibody captured, rMOG-GST analyte)
T2 construct: whole construct entry
T2 sequence (chain, as listed by the source limits assumed): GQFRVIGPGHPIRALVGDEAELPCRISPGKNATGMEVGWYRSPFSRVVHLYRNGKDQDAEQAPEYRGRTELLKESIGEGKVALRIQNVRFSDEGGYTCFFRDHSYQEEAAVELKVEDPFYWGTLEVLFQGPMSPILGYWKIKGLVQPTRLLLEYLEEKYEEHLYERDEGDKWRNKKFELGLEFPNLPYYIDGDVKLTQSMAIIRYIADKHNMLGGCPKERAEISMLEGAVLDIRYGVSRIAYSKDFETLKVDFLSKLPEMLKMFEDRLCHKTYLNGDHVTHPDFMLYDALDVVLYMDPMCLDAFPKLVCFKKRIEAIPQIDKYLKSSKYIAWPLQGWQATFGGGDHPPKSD
Method: The antibodies were immobilized on CM5 sensor chips using a Human antibody Capture kit, and the binding abilities were evaluated using rMOG-GST produced in Example 4 as an analyte. The obtained sensorgrams were analyzed with BIA evaluation software, and the dissociation constants (KD values) were thus calculated.
Binding of the bispecific antibodies obtained in Example 6 and Example 16 to MOG was evaluated by the same method as that of Example 8.

[2] = target: T1, human MOG (hMOG) expressed on HEK293, …; assay: flow cytometry on L929 cells expressing human MOG (hMOG/L929); antibody titrated, RPE-labelled goat anti-human antibody
Text: pEF6_hMOG obtained in Example 5 was introduced to mouse connective tissue-derived fibroblast L929 cells [American Type Culture Collection (ATCC) No.: CCL-1] using HilyMax (manufactured by Dojindo Laboratories). The gene-transfected cells were selected using an antibiotic substance, Blasticidin (manufactured by Invitrogen) and then cloned by the limiting dilution method. Using the L929 cells expressing hMOG on the cell surface (abbreviated as hMOG/L929 below), the reactivities of the bispecific antibodies were analyzed by the method described below.
The hMOG/L929 cells were suspended in a Staining Buffer (SB) of PBS containing 0.1% NaN₃ and 1% FBS and dispensed to a round-bottom 96-well plate (manufactured by Becton Dickinson). […] After suspending the pellets, the plate was left to stand at ice temperature for 30 minutes. The supernatants were removed after further centrifugation (2000 rpm, 4° C., two minutes), and the pellets were washed with SB. Then, 1 μg/mL RPE fluorescently labeled goat anti-human antibody (manufactured by Southern Biotech) was added, and the plate was incubated at ice temperature for 30 minutes. After washing with SB, the cells were suspended in SB, and the fluorescence intensities of the cells were measured with a flow cytometer FACS CANTO II (manufactured by Becton Dickinson). The results are shown in FIGS. 12A to 12C and FIGS. 13A and 13B.

Binder | Kd [1] | koff [1] | kon [1] | binding result [2]
AVM-MOG01 IgG4PE(R409K) antibody (bispecific antibody, copies: 1 + 1 + 1 + 1) heavy 1: EVQLVESGGGLVQPGRSLKLSCAASGFTFSNYAMAWVRRAPTKGLEWVASISNGGGNTYYRDSVKGRFTISRDDAKNTLYLQMDSLRSEDTATYYCARHGNYIYYGSFFDYWGQGVMVTVSSASTKGPSVFPLAPCSRSTSESTAALGCLVKDYFPEPVTVSWNSGALTSGVHTFPAVLQSSGLYSLSSVVTVPSSSLGTKTYTCNVDHKPSNTKVDKRVESKYGPPCPPCPAPEFEGGPSVFLFPPKPKDTLMISRTPEVTCVVVDVSQEDPEVQFNWYVDGVEVHNAKTKPREEQFNSTYRVVSVLTVLHQDWLNGKEYKCKVSNKGLPSSIEKTISKAKGQPREPQVYTLPPCQEEMTKNQVSLWCLVKGFYPSDIAVEWESNGQPENNYKTTPPVLDSDGSFFLYSKLTVDKSRWQEGNVFSCSVMHEALHNHYTQKSLSLSLGKDYKDDDDK heavy 2: QVQLQQSGAGLLKPSETLSLTCAVSGGSFSGYYWTWIRQRPGKGLEWIGEINHRGSTDYNPSLKSRVTMSIDTSKSQFSLNLKSVTAADTAVYYCARAAWGSCYDGTCYPAEYFQYWGQGTLVTVSSASTKGPSVFPLAPCSRSTSESTAALGCLVKDYFPEPVTVSWNSGALTSGVHTFPAVLQSSGLYSLSSVVTVPSSSLGTKTYTCNVDHKPSNTKVDKRVESKYGPPCPPCPAPEFEGGPSVFLFPPKPKDTLMISRTPEVTCVVVDVSQEDPEVQFNWYVDGVEVHNAKTKPREEQFNSTYRVVSVLTVLHQDWLNGKEYKCKVSNKGLPSSIEKTISKAKGQPREPQVCTLPPSQEEMTKNQVSLSCAVKGFYPSDIAVEWESNGQPENNYKTTPPVLDSDGSFFLVSKLTVDKSRWQEGNVFSCSVMHEALHNHYTQKSLSLSLGKHHHHHH light 1: QFVLSQPNSVSTNLGSTVKLSCKRSTGNIGSNYVSWYQQHEGRSPTTMIYRDDKRPDGVPDRFSGSIDRSSDSALLTINNVQTEDEADYFCQSYSSGINIFGGGTKLTVLGQPKAAPSVTLFPPSSEELQANKATLVCLISDFYPGAVTVAWKADSSPVKAGVETTTPSKQSNNKYAASSYLSLTPEQWKSHRSYSCQVTHEGSTVEKTVAPTECS light 2: QSALTQPASVSGSPGQSITISCTGTSRDVGGYNYVSWYQQHPGKAPKLMIYDVNNRPSGVSNRFSGSKSGNTASLTISGLQAEDEADYFCSSYTSSSTPVVFGGGTKLTVLGQPKAAPSVTLFPPSSEELQANKATLVCLISDFYPGAVTVAWKADSSPVKAGVETTTPSKQSNNKYAASSYLSLTPEQWKSHRSYSCQVTHEGSTVEKTVAPTECS | 12 nM | 0.0016 s⁻¹ | 130000 M⁻¹ s⁻¹ | binds
AVM IgG4PE(R409K)_AVM Fab ANTIBODY (antibody) heavy 1: not shown heavy 2: EVQLVESGGGLVQPGRSLKLSCAASGFTFSNYAMAWVRRAPTKGLEWVASISNGGGNTYYRDSVKGRFTISRDDAKNTLYLQMDSLRSEDTATYYCARHGNYIYYGSFFDYWGQGVMVTVSSASTKGPSVFPLAPCSRSTSESTAALGCLVKDYFPEPVTVSWNSGALTSGVHTFPAVLQSSGLYSLSSVVTVPSSSLGTKTYTCNVDHKPSNTKVDKRV light: QFVLSQPNSVSTNLGSTVKLSCKRSTGNIGSNYVSWYQQHEGRSPTTMIYRDDKRPDGVPDRFSGSIDRSSDSALLTINNVQTEDEADYFCQSYSSGINIFGGGTKLTVLGQPKAAPSVTLFPPSSEELQANKATLVCLISDFYPGAVTVAWKADSSPVKAGVETTTPSKQSNNKYAASSYLSLTPEQWKSHRSYSCQVTHEGSTVEKTVAPTECS |  |  |  | no binding
AVM IgG4PE(R409K)_AVMsscFv ANTIBODY (antibody) heavy 1: EVQLVESGGGLVQPGRSLKLSCAASGFTFSNYAMAWVRRAPTKGLEWVASISNGGGNTYYRDSVKGRFTISRDDAKNTLYLQMDSLRSEDTATYYCARHGNYIYYGSFFDYWGQGVMVTVSSASTKGPSVFPLAPCSRSTSESTAALGCLVKDYFPEPVTVSWNSGALTSGVHTFPAVLQSSGLYSLSSVVTVPSSSLGTKTYTCNVDHKPSNTKVDKRVESKYGPPCPPCPAPEFEGGPSVFLFPPKPKDTLMISRTPEVTCVVVDVSQEDPEVQFNWYVDGVEVHNAKTKPREEQFNSTYRVVSVLTVLHQDWLNGKEYKCKVSNKGLPSSIEKTISKAKGQPREPQVYTLPPCQEEMTKNQVSLWCLVKGFYPSDIAVEWESNGQPENNYKTTPPVLDSDGSFFLYSKLTVDKSRWQEGNVFSCSVMHEALHNHYTQKSLSLSLGGGSGGGGSGGGGSGGGGSEVQLVESGGGLVQPGRSLKLSCAASGFTFSNYAMAWVRRAPTKGLEWVASISNGGGNTYYRDSVKGRFTISRDDAKNTLYLQMDSLRSEDTATYYCARHGNYIYYGSFFDYWGQGVMVTVSSGGGGSGGRASGGGGSQFVLSQPNSVSTNLGSTVKLSCKRSTGNIGSNYVSWYQQHEGRSPTTMIYRDDKRPDGVPDRFSGSIDRSSDSALLTINNVQTEDEADYFCQSYSSGINIFGGGTKLTVLDYKDDDDK heavy 2: EVQLVESGGGLVQPGRSLKLSCAASGFTFSNYAMAWVRRAPTKGLEWVASISNGGGNTYYRDSVKGRFTISRDDAKNTLYLQMDSLRSEDTATYYCARHGNYIYYGSFFDYWGQGVMVTVSSASTKGPSVFPLAPCSRSTSESTAALGCLVKDYFPEPVTVSWNSGALTSGVHTFPAVLQSSGLYSLSSVVTVPSSSLGTKTYTCNVDHKPSNTKVDKRVESKYGPPCPPCPAPEFEGGPSVFLFPPKPKDTLMISRTPEVTCVVVDVSQEDPEVQFNWYVDGVEVHNAKTKPREEQFNSTYRVVSVLTVLHQDWLNGKEYKCKVSNKGLPSSIEKTISKAKGQPREPQVCTLPPSQEEMTKNQVSLSCAVKGFYPSDIAVEWESNGQPENNYKTTPPVLDSDGSFFLVSKLTVDKSRWQEGNVFSCSVMHEALHNHYTQKSLSLSLGKHHHHHH light: QFVLSQPNSVSTNLGSTVKLSCKRSTGNIGSNYVSWYQQHEGRSPTTMIYRDDKRPDGVPDRFSGSIDRSSDSALLTINNVQTEDEADYFCQSYSSGINIFGGGTKLTVLGQPKAAPSVTLFPPSSEELQANKATLVCLISDFYPGAVTVAWKADSSPVKAGVETTTPSKQSNNKYAASSYLSLTPEQWKSHRSYSCQVTHEGSTVEKTVAPTECS |  |  |  | no binding
AVM IgG4PE(R409K)_MOG01dscFv11 antibody (bispecific antibody, also called pCI-AVM-hLG4PE(R409K)_MOG01scFv11) heavy: not shown light: QFVLSQPNSVSTNLGSTVKLSCKRSTGNIGSNYVSWYQQHEGRSPTTMIYRDDKRPDGVPDRFSGSIDRSSDSALLTINNVQTEDEADYFCQSYSSGINIFGGGTKLTVLGQPKAAPSVTLFPPSSEELQANKATLVCLISDFYPGAVTVAWKADSSPVKAGVETTTPSKQSNNKYAASSYLSLTPEQWKSHRSYSCQVTHEGSTVEKTVAPTECS |  |  |  | binds
